In publication PMC11276676:

How the values were obtained:
Assay in all cases: AUC; sedimentation velocity, absorbance detection, 20 °C, 20 mM Hepes-NaOH with 1 mM TCEP, without (pH 6.79) or with (pH 6.87) 150 mM NaCl, 42,000 rpm, protein 1.30-1.53 and 2.73-5.98 µM; monomer to dimer
[1] = target: Helicobacter pylori adenylosuccinate synthetase with His6-tag fused on its N-terminus (Helicobacter pylori (reference strain 26695)) (UniProt P56137)
[2] = target: Helicobacter pylori adenylosuccinate synthetase with His6-tag on the C-terminus (Helicobacter pylori (reference strain 26695)) (UniProt P56137)
[3] = target: wild-type Helicobacter pylori adenylosuccinate synthetase (Helicobacter pylori (reference strain 26695)) (UniProt P56137)

## Helicobacter pylori adenylosuccinate synthetase with His6-tag fused on its N-terminus (from UniProt P56137 1-411) (enzyme)
[1]
  stoichiometry N: 2

## Helicobacter pylori adenylosuccinate synthetase with His6-tag on the C-terminus (from UniProt P56137 1-411) (enzyme)
[2]
  stoichiometry N: 2

## wild-type Helicobacter pylori adenylosuccinate synthetase (from UniProt P56137 1-411) (enzyme)
[3]
  stoichiometry N: 2
